Publication PMC10328401 (Science Advances, 2023)

Molecular target: T1, RsgI2-PD C-terminal fragment after autocleavage at Asn97-Pro98 (Clostridium thermocellum DSM 1313, UniProt A3DC27 98-259)
T1 sequence (looked up): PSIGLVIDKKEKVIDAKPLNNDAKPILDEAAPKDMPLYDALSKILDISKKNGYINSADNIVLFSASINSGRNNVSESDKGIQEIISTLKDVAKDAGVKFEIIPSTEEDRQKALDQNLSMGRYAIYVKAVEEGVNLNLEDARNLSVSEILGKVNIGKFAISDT
Assay: crystal structure

binding result: binds
Binder: SQEYAYIDVDIN (peptide, UniProt A3DC27 86-97, looked up) [RsgI2-PD N-terminal fragment after autocleavage at Asn97-Pro98 (β1 strand chain, twelve residues)]
